Assay results taken from paper PMC11203801.

Tests used:
Settings in all cases: remark: other sources report otherwise
[1] = molecular target: human HSP60 (60-kDa Heat Shock Protein) (human), P10809; assay: native gel or EMSA; HSP60 and HSP10 mixed at the same molar ratio, PBS or Mizoribine below 10 mM (1, 5 mM); Native/PAGE gradient gel, Coomassie stain
[2] = molecular target: human HSP60 (60-kDa Heat Shock Protein) (human), P10809; assay: negative-stain transmission electron microscopy; HSP60 and HSP10 (0.1 mM) incubated for 10 min in the absence of Mizoribine, treated with 2% uranyl acetate; particles classified and counted
[3] = molecular target: human HSP60 (60-kDa Heat Shock Protein) (human), P10809; assay: negative-stain transmission electron microscopy; HSP60 and HSP10 (0.1 mM) incubated for 10 min with 10 mM Mizoribine, treated with 2% uranyl acetate; particles classified and counted
[4] = molecular target: human HSP60 (60-kDa Heat Shock Protein) (human), P10809; assay: native gel or EMSA; purified HSP60 and HSP10 each run on Native-PAGE (5-12% gradient gel by the legend; Blue NativePAGE 3-12% Bis-Tris by the methods), in the absence of ATP, Coomassie stain

- stoichiometry N [1]: 7
- stoichiometry N [2]: 7
- share of observed particles as HSP60 (7) (single ring structure, no HSP10), with 10 mM Mizoribine [3]: 4%
- stoichiometry N [4]: 7
B1: human HSP60 (60-kDa Heat Shock Protein), P10809 27-573 (natural protein)
chain: AKDVKFGADARALMLQGVDLLADAVAVTMGPKGRTVIIEQSWGSPKVTKDGVTVAKSIDLKDKYKNIGAKLVQDVANNTNEEAGDGTTTATVLARSIAKEGFEKISKGANPVEIRRGVMLAVDAVIAELKKQSKPVTTPEEIAQVATISANGDKEIGNIISDAMKKVGRKGVITVKDGKTLNDELEIIEGMKFDRGYISPYFINTSKGQKCEFQDAYVLLSEKKISSIQSIVPALEIANAHRKPLVIIAEDVDGEALSTLVLNRLKVGLQVVAVKAPGFGDNRKNQLKDMAIATGGAVFGEEGLTLNLEDVQPHDLGKVGEVIVTKDDAMLLKGKGDKAQIEKRIQEIIEQLDVTTSEYEKEKLNERLAKLSDGVAVLKVGGTSDVEVNEKKDRVTDALNATRAAVEEGIVLGGGCALLRCIPALDSLTPANEDQKIGIEIIKRTLKIPAMTIAKNAGVEGSLIVEKIMQSSSEVGYDAMAGDFVNMVEKGIIDPTKVVRTALLDAAGVASLLTTAEVVVTEIPKEEKDPGMGAMGGMGGGMGGGMF
